The labels stand for the following.
B1: TRIM39 (parent)
chain: ERDFPCPVCRKTSRYRSLRPNRQL
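Note: lentivirally expressed fusions sorted by FACS into six bins by GFP to DsRed ratio, PSI derived from sequencing read proportions per bin multiplied by bin number.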

The data set covers variants of B1. The data set is described as follows: protein stability index of a GFP-peptide fusion (GPS, HEK-293T) (PSI 1-6); higher = more stable. The following applies: c terminus: a fixed tail appended.
Consider ERDFPCDVCRKTSRYRSLRPNRQL [P7D], for which the protein stability index turned out to be 2.43.

As for ERDFPCRVCRKTSRYRSLRPNRQL [P7R], the protein stability index amounted to 2.88.

Regarding ERDFPCYVCRKTSRYRSLRPNRQL [P7Y], the protein stability index is 2.09.

As for ERDFPCKVCRKTSRYRSLRPNRQL [P7K], the protein stability index is 2.6.

Regarding ERDFPCHVCRKTSRYRSLRPNRQL [P7H], the protein stability index was 3.7.

On to ERDFPCMVCRKTSRYRSLRPNRQL [P7M], for which the protein stability index turned out to be 2.17.

As for ERDFPCNVCRKTSRYRSLRPNRQL [P7N], the protein stability index is 2.19.

As to ERDFPCIVCRKTSRYRSLRPNRQL [P7I], the protein stability index was determined as 2.75.

Take ERDFPCQVCRKTSRYRSLRPNRQL [P7Q]: the protein stability index came to 1.96.

As to ERDFPCWVCRKTSRYRSLRPNRQL [P7W], the protein stability index stood at 1.96.

Consider ERDFPCTVCRKTSRYRSLRPNRQL [P7T], for which the protein stability index was determined as 1.85.

As for ERDFPCLVCRKTSRYRSLRPNRQL [P7L], the protein stability index was 2.37.

Turning to ERDFPCGVCRKTSRYRSLRPNRQL [P7G], the protein stability index stood at 2.38.

For the variant ERDFPCFVCRKTSRYRSLRPNRQL [P7F], the protein stability index stood at 1.8.

In the case of ERDFPCSVCRKTSRYRSLRPNRQL [P7S], the protein stability index was determined as 2.22.

As for ERDFPCPVCRPTSRYRSLRPNRQL [K11P], the protein stability index was found to be 2.54.

On to ERDFPCPVCRATSRYRSLRPNRQL [K11A], for which the protein stability index is 2.45.

Turning to ERDFPCPVCRWTSRYRSLRPNRQL [K11W], the protein stability index stood at 2.84.

As for ERDFPCPVCRCTSRYRSLRPNRQL [K11C], the protein stability index turned out to be 2.55.

On to ERDFPCPVCRSTSRYRSLRPNRQL [K11S], for which the protein stability index turned out to be 2.25.

In the case of ERDFPCPVCRQTSRYRSLRPNRQL [K11Q], the protein stability index worked out at 2.4.

Consider ERDFPCPVCRITSRYRSLRPNRQL [K11I], for which the protein stability index came out at 1.21.

For the variant ERDFPCPVCRMTSRYRSLRPNRQL [K11M], the protein stability index was 1.65.

With ERDFPCPVCRGTSRYRSLRPNRQL [K11G], the protein stability index is 1.75.

With ERDFPCPVCRETSRYRSLRPNRQL [K11E], the protein stability index is 1.17.

On to ERDFPCPVCRHTSRYRSLRPNRQL [K11H], for which the protein stability index came out at 3.77.

Take ERDFPCPVCRRTSRYRSLRPNRQL [K11R]: the protein stability index amounted to 1.85.

As to ERDFPCPVCRDTSRYRSLRPNRQL [K11D], the protein stability index amounted to 1.7.

Take ERDFPCPVCRFTSRYRSLRPNRQL [K11F]: the protein stability index stood at 1.88.

Take ERDFPCPVCRNTSRYRSLRPNRQL [K11N]: the protein stability index was found to be 3.36.

Consider ERDFPCPVCRVTSRYRSLRPNRQL [K11V], for which the protein stability index is 1.63.

On to ERDFPCPVCRYTSRYRSLRPNRQL [K11Y], for which the protein stability index was determined as 1.8.

ERDFPCPVCGKTSRYRSLRPNRQL [R10G]: the protein stability index was 4.1.

Turning to ERDFPCPVCFKTSRYRSLRPNRQL [R10F], the protein stability index was found to be 1.74.

Take ERDFPCPVCIKTSRYRSLRPNRQL [R10I]: the protein stability index was 2.6.

With ERDFPCPVCNKTSRYRSLRPNRQL [R10N], the protein stability index stood at 2.22.

Consider ERDFPCPVCLKTSRYRSLRPNRQL [R10L], for which the protein stability index is 2.45.

Turning to ERDFPCPVCSKTSRYRSLRPNRQL [R10S], the protein stability index is 1.15.

ERDFPCPVCEKTSRYRSLRPNRQL [R10E]: the protein stability index is 1.91.

As for ERDFPCPVCHKTSRYRSLRPNRQL [R10H], the protein stability index turned out to be 2.53.

On to ERDFPCPVCYKTSRYRSLRPNRQL [R10Y], for which the protein stability index stood at 2.03.

As to ERDFPCPVCPKTSRYRSLRPNRQL [R10P], the protein stability index amounted to 3.13.

As to ERDFPCPVCTKTSRYRSLRPNRQL [R10T], the protein stability index was found to be 2.16.

For ERDFPCPVCMKTSRYRSLRPNRQL [R10M], the protein stability index came to 2.88.

For the variant ERDFPCPVCCKTSRYRSLRPNRQL [R10C], the protein stability index is 3.16.

Turning to ERDFPCPVCVKTSRYRSLRPNRQL [R10V], the protein stability index stood at 2.04.

Take ERDFPCPVCDKTSRYRSLRPNRQL [R10D]: the protein stability index is 2.89.

In the case of ERDFPCPVCAKTSRYRSLRPNRQL [R10A], the protein stability index was 1.88.

As to ERDFPCPVCKKTSRYRSLRPNRQL [R10K], the protein stability index was 2.14.

As to ERDFPCPVCQKTSRYRSLRPNRQL [R10Q], the protein stability index amounted to 2.08.

Turning to ERDFPCPVCRKASRYRSLRPNRQL [T12A], the protein stability index was found to be 2.64.

As to ERDFPCPVCRKMSRYRSLRPNRQL [T12M], the protein stability index came to 2.36.

Turning to ERDFPCPVCRKDSRYRSLRPNRQL [T12D], the protein stability index is 1.37.

As for ERDFPCPVCRKPSRYRSLRPNRQL [T12P], the protein stability index was 1.55.

Turning to ERDFPCPVCRKKSRYRSLRPNRQL [T12K], the protein stability index turned out to be 2.64.

ERDFPCPVCRKGSRYRSLRPNRQL [T12G]: the protein stability index is 2.05.

ERDFPCPVCRKLSRYRSLRPNRQL [T12L]: the protein stability index was found to be 2.13.

Turning to ERDFPCPVCRKCSRYRSLRPNRQL [T12C], the protein stability index worked out at 2.

Take ERDFPCPVCRKISRYRSLRPNRQL [T12I]: the protein stability index turned out to be 1.71.

ERDFPCPVCRKHSRYRSLRPNRQL [T12H]: the protein stability index was 1.55.

In the case of ERDFPCPVCRKFSRYRSLRPNRQL [T12F], the protein stability index stood at 2.88.

As to ERDFPCPVMRKTSRYRSLRPNRQL [C9M], the protein stability index amounted to 3.41.

As to ERDFPCPVDRKTSRYRSLRPNRQL [C9D], the protein stability index came out at 4.01.

With ERDFPCPVSRKTSRYRSLRPNRQL [C9S], the protein stability index was found to be 3.77.

Consider ERDFPCPVNRKTSRYRSLRPNRQL [C9N], for which the protein stability index worked out at 2.78.

Consider ERDFPCPVQRKTSRYRSLRPNRQL [C9Q], for which the protein stability index is 3.81.

Regarding ERDFPCPVKRKTSRYRSLRPNRQL [C9K], the protein stability index is 3.42.

As for ERDFPCPVVRKTSRYRSLRPNRQL [C9V], the protein stability index is 3.26.

ERDFPCPVFRKTSRYRSLRPNRQL [C9F]: the protein stability index amounted to 2.45.

ERDFPCPVARKTSRYRSLRPNRQL [C9A]: the protein stability index was found to be 3.79.

As to ERDFPCPVGRKTSRYRSLRPNRQL [C9G], the protein stability index was found to be 3.91.

For the variant ERDFPCPVIRKTSRYRSLRPNRQL [C9I], the protein stability index amounted to 3.29.

Turning to ERDFPCPVPRKTSRYRSLRPNRQL [C9P], the protein stability index worked out at 2.92.

As for ERDFPCPVTRKTSRYRSLRPNRQL [C9T], the protein stability index came out at 3.77.

Consider ERDFPCPVHRKTSRYRSLRPNRQL [C9H], for which the protein stability index was determined as 2.56.

ERDFPCPVYRKTSRYRSLRPNRQL [C9Y]: the protein stability index was found to be 3.62.

Consider ERDFPCPRCRKTSRYRSLRPNRQL [V8R], for which the protein stability index came out at 3.23.

With ERDFPCPGCRKTSRYRSLRPNRQL [V8G], the protein stability index worked out at 2.75.

With ERDFPCPYCRKTSRYRSLRPNRQL [V8Y], the protein stability index is 1.95.

With ERDFPCPTCRKTSRYRSLRPNRQL [V8T], the protein stability index came to 3.06.

As to ERDFPCPDCRKTSRYRSLRPNRQL [V8D], the protein stability index amounted to 2.2.

Regarding ERDFPCPFCRKTSRYRSLRPNRQL [V8F], the protein stability index was 1.41.

For the variant ERDFPCPPCRKTSRYRSLRPNRQL [V8P], the protein stability index worked out at 3.91.

In the case of ERDFPCPSCRKTSRYRSLRPNRQL [V8S], the protein stability index came to 3.84.

Consider ERDFPCPACRKTSRYRSLRPNRQL [V8A], for which the protein stability index came out at 2.89.

Turning to ERDFPCPECRKTSRYRSLRPNRQL [V8E], the protein stability index is 1.72.

In the case of ERDFPCPLCRKTSRYRSLRPNRQL [V8L], the protein stability index is 1.96.

Take ERDFPCPKCRKTSRYRSLRPNRQL [V8K]: the protein stability index amounted to 2.68.

In the case of ERDFPCPHCRKTSRYRSLRPNRQL [V8H], the protein stability index was 2.34.

Turning to ERDFPCPICRKTSRYRSLRPNRQL [V8I], the protein stability index was found to be 2.38.

As to ERDFPCPNCRKTSRYRSLRPNRQL [V8N], the protein stability index was determined as 2.43.

ERDFPCPCCRKTSRYRSLRPNRQL [V8C]: the protein stability index was determined as 2.66.

Take ERDFPCPMCRKTSRYRSLRPNRQL [V8M]: the protein stability index stood at 2.31.

For ERDFPCPQCRKTSRYRSLRPNRQL [V8Q], the protein stability index stood at 2.35.

Source of the values: the supplement of paper PMC10567573.
